Results taken from article PMC3035937 (Journal of molecular biology, 2010).

T1: GST-SpRad9 (S. pombe, UniProt P26306 1-426)
T1 sequence (looked up): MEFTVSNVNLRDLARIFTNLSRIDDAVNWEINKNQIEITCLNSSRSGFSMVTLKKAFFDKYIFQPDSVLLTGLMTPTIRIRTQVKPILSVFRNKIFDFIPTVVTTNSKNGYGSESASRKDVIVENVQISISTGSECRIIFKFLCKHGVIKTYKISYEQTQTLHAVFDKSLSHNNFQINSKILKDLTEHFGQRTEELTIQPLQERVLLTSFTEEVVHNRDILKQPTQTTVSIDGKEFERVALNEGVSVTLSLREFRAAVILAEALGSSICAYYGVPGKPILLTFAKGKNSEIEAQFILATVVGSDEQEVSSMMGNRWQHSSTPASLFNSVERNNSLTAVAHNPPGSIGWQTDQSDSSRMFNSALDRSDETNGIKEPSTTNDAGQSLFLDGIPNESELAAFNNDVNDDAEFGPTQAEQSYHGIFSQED

B1: purified SpHst4 (SpHst4-His) (natural protein, S. pombe, UniProt Q9UR39 1-415, looked up)
chain: MKVEEHVPLIQESRKRKCQSSENASKRQQLLSKLPLRLHTGNENVDLSPLVSAIRKAKRIVVVTGAGISCDAGIPDFRSSEGLFSSLRAEYKLNCSGKELFDGSVYRDLKSVNIFHAMIRKLHMLSNNARPTDFHLFLSQLAQESKLLRLYTQNIDFLETRLEGLQTCIPLPQSAPWPTTIPLHGTLEVVSCTRCSFLKKFNPDIFDRNGVTVCPDCKTENEVRRIAGKRSVIEGCLRPRIVLYNEIHPDSESIGSVCSQDLKSRPDCLIVAGTSCKIPGVKRIIKEMSNCVHKQKGNVIWLNYDEPTKDFLNLCDLVVQGDLQIAIRRLKPLLDAPSWKLKSHSAKRTSKQKSSEQTKITSSTKITKAIGLNTKSNDSSKKDNTSFQLHQVLNSIEIPKVEIKQEVEYATPSPL

What was measured:
[1] = target: B1; test: pull-down
[2] = target: T1, GST-SpRad9; test: pull-down

| binding result [1] | binding result [2] | Binder |
| --- | --- | --- |
| binds |  | GST-SpHus1 (natural protein, S. pombe, UniProt P78955 1-287, looked up) MRFKTRISNLYTLTRLVQALDKIGRFCWLRLMPETVNFVIVPDFRMTQVWSVLEVETIFEDYVVQSNADNVINLEVPIDNFYKALRSAANASDSTVRLSKKNNQPLLSLSTTWSGRAFGSNIVTHNIPVRVLSQSYVSVIKEPTAPEPDCHIFLPQLNFLRHVVDKYKSLSDRIIMSANMSGELQLSVNIPSARVSTKWKGLENPELDPSQVEDISRHPSQTRAPEEFVHMRLDSKDLVNMLKISSVAKRVIACFCEGHALVLYVYITDPEDEHTAVLTYYISTYVD |
|  | binds | B1 |
| binds |  | GST-SpRad1 (natural protein, S. pombe, UniProt P22193 1-323, looked up) MFQAETVCLKQIQSTLRCIDFSKECTIEITSRGLRFAVEESQSLQAHAFLDKSLFQTFNFQGDSDGDTYMFQTMISPLLQSLSIYTDGKERISTSAWDQPTVNIMHKRGVICKVQYNGPGCPFIWEVEEMAGYATACELLTMECEDDVDINRLASTLCTKIIMKSNWLYDALVELDNNMGENLIIHTSSQKSTFLLRCVGALSTTEIEYPNEKSVLESFETDSENTYSYRFSLIRHALKALQVGSKVNLRIDENGTLSIQIMLVGQEGLCTFVDFCIVPLDLVSEDEEEDEEEEPAESNQSDNNVLRNDPNYRGDAETEDEDS |
